First the molecules themselves.
T1: EsCas13d, nuclease-dead (Eubacterium siraeum, UniProt B0MS50, R295A;H300A;R849A;H854A)
T1 sequence: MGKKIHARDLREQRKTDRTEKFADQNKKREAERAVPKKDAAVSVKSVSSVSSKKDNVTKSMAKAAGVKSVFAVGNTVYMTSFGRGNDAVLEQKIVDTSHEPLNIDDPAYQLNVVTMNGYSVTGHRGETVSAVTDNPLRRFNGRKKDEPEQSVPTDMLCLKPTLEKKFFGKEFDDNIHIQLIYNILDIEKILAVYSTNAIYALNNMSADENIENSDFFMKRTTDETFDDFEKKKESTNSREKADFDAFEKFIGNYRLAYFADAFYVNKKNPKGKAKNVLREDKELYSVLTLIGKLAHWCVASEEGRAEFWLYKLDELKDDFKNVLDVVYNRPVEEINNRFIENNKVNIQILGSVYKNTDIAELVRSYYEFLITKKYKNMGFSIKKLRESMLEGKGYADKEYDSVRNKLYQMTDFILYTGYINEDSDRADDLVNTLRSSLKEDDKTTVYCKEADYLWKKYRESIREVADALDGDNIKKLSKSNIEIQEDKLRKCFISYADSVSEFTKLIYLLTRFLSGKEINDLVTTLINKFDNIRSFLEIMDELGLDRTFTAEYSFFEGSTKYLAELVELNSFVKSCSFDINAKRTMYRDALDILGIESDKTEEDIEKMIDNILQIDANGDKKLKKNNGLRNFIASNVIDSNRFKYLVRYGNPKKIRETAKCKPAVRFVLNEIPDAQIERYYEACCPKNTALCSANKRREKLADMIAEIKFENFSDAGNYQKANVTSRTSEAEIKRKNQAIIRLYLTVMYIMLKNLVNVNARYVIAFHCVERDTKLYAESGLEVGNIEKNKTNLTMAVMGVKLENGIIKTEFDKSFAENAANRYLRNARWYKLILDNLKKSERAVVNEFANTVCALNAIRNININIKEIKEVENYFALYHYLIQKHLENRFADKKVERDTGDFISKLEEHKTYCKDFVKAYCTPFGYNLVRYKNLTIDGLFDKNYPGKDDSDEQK

B1: target 1 G5A,G13A (mixed)
RNA 1: CACCCGUGCAAAAAUGCAGGGGUCUAAAACUGAGCGGAUAACCUCUCUAUGG
RNA 2: GGGAAUGGAUCCACAUCUACGAAUUCGUACCAUAGAGAAGUUAUCCACUCACCGAGAUCGGAAGAGCACACGU
B2: target 1 insC 3' of 10,insA 3' of 4 (mixed)
RNA 1: B1 RNA 1
RNA 2: GGGAAUGGAUCCACAUCUACGAAUUCGUACCAUAGAGAGGUUCAUCCGCAUCACCGAGAUCGGAAGAGCACACGU
B3: target 1 U8C,G13A (mixed)
RNA 1: B1 RNA 1
RNA 2: B1 RNA 2 with U44C, A47G
B4: target 1 C6U,A14G (mixed)
RNA 1: B1 RNA 1
RNA 2: B1 RNA 2 with A38G, A39G, C46U, A47G
B5: target 1 A1G,A20C (mixed)
RNA 1: B1 RNA 1
RNA 2: B1 RNA 2 with A32C, A39G, A47G, A51G
B6: target 1 C7U,U8G (mixed)
RNA 1: B1 RNA 1
RNA 2: B1 RNA 2 with A39G, U44G, C45U, A47G
B7: target 1 complement block 1-3 (mixed)
RNA 1: B1 RNA 1
RNA 2: B1 RNA 2 with A39G, A47G, U49A, C50G, A51U
B8: target 1 insC 3' of 15,insC 3' of 8 (mixed)
RNA 1: B1 RNA 1
RNA 2: B2 RNA 2 with A38C, G39A, U41G, C43U, G48C, C49G, A50C
B9: target 1 insA 3' of 8,insC 3' of 3 (mixed)
RNA 1: B1 RNA 1
RNA 2: B2 RNA 2 with C43A, A44U, U45A, A50U, U51C
B10: target 1 U3G,U8C (mixed)
RNA 1: B1 RNA 1
RNA 2: B1 RNA 2 with A39G, U44C, A47G, U49G
B11: target 1 insC 3' of 20,insU 3' of 12 (mixed)
RNA 1: B1 RNA 1
RNA 2: GGGAAUGGAUCCACAUCUACGAAUUCGUACCACUAGAGAGGUUUAUCCGCUCACCGAGAUCGGAAGAGCACACGU
B12: target 1 del6,del7 (mixed)
RNA 1: B1 RNA 1
RNA 2: GGGAAUGGAUCCACAUCUACGAAUUCGUACCAUAGAGAGGUUAUGCUCACCGAGAUCGGAAGAGCACACGU
B13: target 1 insU 3' of 22,insC 3' of 15 (mixed)
RNA 1: B1 RNA 1
RNA 2: B11 RNA 2 with C31U, A32C, C33A, A39C, G40A, U42G
B14: target 1 insG 3' of 6,insU 3' of 1 (mixed)
RNA 1: B1 RNA 1
RNA 2: B2 RNA 2 with C43A, A44U, U45C, C47G, A50U, U51C, C52A, A53U
B15: target 1 C2A,U10G (mixed)
RNA 1: B1 RNA 1
RNA 2: B1 RNA 2 with A39G, U42G, A47G, C50A
B16: target 1 insA 3' of 6,insA 3' of 2 (mixed)
RNA 1: B1 RNA 1
RNA 2: B2 RNA 2 with C43A, A44U, U45C, C47A, A50U, U51C, C52A
B17: target 1 del9,del20 (mixed)
RNA 1: B1 RNA 1
RNA 2: GGGAAUGGAUCCACAUCUACGAAUUCGUACCUAGAGAGGUUUCCGCUCACCGAGAUCGGAAGAGCACACGU
B18: target 1 G12A,G13C (mixed)
RNA 1: B1 RNA 1
RNA 2: B1 RNA 2 with A39C, G40A, A47G
B19: target 1 C2G,U3A (mixed)
RNA 1: B1 RNA 1
RNA 2: B1 RNA 2 with A39G, A47G, U49A, C50G
B20: target 1 insA 3' of 11,insA 3' of 3 (mixed)
RNA 1: B1 RNA 1
RNA 2: B2 RNA 2 with U42A, C43U, A50U, U51A
B21: target 1 insG 3' of 19,insG 3' of 2 (mixed)
RNA 1: B1 RNA 1
RNA 2: GGGAAUGGAUCCACAUCUACGAAUUCGUACCAUGAGAGAGGUUAUCCGCUCGACCGAGAUCGGAAGAGCACACGU
B22: target 1 insA 3' of 6,insG 3' of 1 (mixed)
RNA 1: B1 RNA 1
RNA 2: B2 RNA 2 with C43A, A44U, U45C, C47A, A50U, U51C, C52A, A53G
B23: target 1 G12A,C21U (mixed)
RNA 1: B1 RNA 1
RNA 2: B1 RNA 2 with C31U, A39G, G40A, A47G
B24: target 1 U3C,U10C (mixed)
RNA 1: B1 RNA 1
RNA 2: B1 RNA 2 with A39G, U42C, A47G, U49C
B25: target 1 insU 3' of 5,insG 3' of 2 (mixed)
RNA 1: B1 RNA 1
RNA 2: B2 RNA 2 with C43A, A44U, U45C, C47G, G48U, A50U, U51C, C52G
B26: target 1 insA 3' of 22,insU 3' of 12 (mixed)
RNA 1: B1 RNA 1
RNA 2: B11 RNA 2 with C31A, A32C, C33A
B27: target 1 U3G,C6A (mixed)
RNA 1: B1 RNA 1
RNA 2: B1 RNA 2 with A39G, C46A, A47G, U49G
B28: target 1 insG 3' of 16,insU 3' of 4 (mixed)
RNA 1: B1 RNA 1
RNA 2: B2 RNA 2 with A38G, G39A, U41G, C43U, A50U
B29: target 1 insC 3' of 22 (mixed)
RNA 1: B1 RNA 1
RNA 2: GGGAAUGGAUCCACAUCUACGAAUUCGUACCCAUAGAGAGGUUAUCCGCUCACCGAGAUCGGAAGAGCACACGU
B30: target 1 insA 3' of 6,insU 3' of 1 (mixed)
RNA 1: B1 RNA 1
RNA 2: B2 RNA 2 with C43A, A44U, U45C, C47A, A50U, U51C, C52A, A53U
B31: target 1 G12U,C22G (mixed)
RNA 1: B1 RNA 1
RNA 2: B1 RNA 2 with C30G, A39G, G40U, A47G
B32: target 1 insG 3' of 8,insU 3' of 4 (mixed)
RNA 1: B1 RNA 1
RNA 2: B2 RNA 2 with C43A, A44U, U45G, A50U

Residue numbers refer to the chain shown, from its start. Numbers in names are those of the source.

This data set deals with T1, EsCas13d, nuclease-dead. Kind of data set: crRNA (strand 1, pre-loaded); Mg2+; 40 mM Tris-HCl pH 7.5, 150 mM NaCl, 6 mM MgCl2, 1 mM DTT, 0.1% Tween-20, 0.2 mg/ml BSA; 25 C; 10 min per concentration, then washed. The following applies: tags: His6-TwinStrep-SUMO cleaved; N-terminal SNAP kept (SNAP-Surface 488); label: 3' end held by stalled T7 RNA polymerase.
As a reminder, the Kd is the concentration at which binding is half-saturated. In turn, B1 came in with a dissociation constant (Kd) of 34 ± 7 nM.

In turn, B2 yielded a Kd of 15.5 ± 2.6 nM. B3 came in with a Kd of 61 ± 12 nM. The molecule B4 registered a Kd of 14.2 ± 0.7 nM. In turn, B5 displayed a dissociation constant Kd of 41 ± 4 nM.

For the molecule B6, binding was characterised by a dissociation constant (Kd) of 14.2 ± 1 nM. Molecule B7 came in with a Kd of 7 ± 0.5 nM.

In turn, B8 showed a dissociation constant Kd of 26.2 ± 2.8 nM. As to B9, the Kd was 15.8 ± 0.6 nM. B10 displayed a dissociation constant Kd of 7.2 ± 0.33 nM. In turn, B11 yielded a Kd of 6.19 ± 0.32 nM. This Kd and that of the molecule before are within 1.5-fold of each other. On to B12, for which the Kd was found to be 11.4 ± 0.7 nM. The result for B13 reads 67 ± 14 nM. B14 yielded a Kd of 17.8 ± 2.3 nM. This Kd lies about 3.8-fold lower than the previous one.

In turn, B15 yielded a dissociation constant Kd of 28 ± 1.9 nM. Against the preceding molecule, the Kd is about 1.6-fold higher. Consider B16, for which binding was put at a Kd of 18.7 ± 1.3 nM.

B17: the dissociation constant (Kd) was 52 ± 7 nM.

As for B18, the Kd was approximately 90 nM. With B19, the dissociation constant (Kd) amounted to 13.4 ± 1.3 nM. B20 returned a dissociation constant (Kd) of 14 ± 0.7 nM. The result for B21 reads 99 ± 26 nM; that for B22, 16 ± 1.2 nM.

For the molecule B23, the Kd came to 7.8 ± 0.5 nM. In turn, B24 displayed a Kd of 51 ± 9 nM. B25 registered a Kd of 9.1 ± 0.5 nM. This Kd lies about 5.6-fold lower than the previous one. Take B26: the affinity, expressed as Kd, was 11.5 ± 1.1 nM. B27 yielded a Kd of 6.3 ± 0.4 nM. This Kd is about 1.8-fold lower than that of the molecule before. In turn, B28 gave a dissociation constant Kd of 13.9 ± 0.6 nM. The molecule B29 registered a dissociation constant (Kd) of 14.7 ± 0.9 nM. As to B30, the Kd is 25 ± 5 nM. Compared with the last molecule, the Kd is about 1.7-fold higher. B31 had a dissociation constant (Kd) of 42 ± 6 nM. Molecule B32 returned a Kd of 9.44 ± 0.34 nM.
